This assay addresses T1, EsaC (Staphylococcus aureus, UniProt A0A0H2XIK2 1-130).
T1 construct: Predicted soluble 130 amino acid protein; also called EsaC polypeptide; purified EsaC
T1 sequence: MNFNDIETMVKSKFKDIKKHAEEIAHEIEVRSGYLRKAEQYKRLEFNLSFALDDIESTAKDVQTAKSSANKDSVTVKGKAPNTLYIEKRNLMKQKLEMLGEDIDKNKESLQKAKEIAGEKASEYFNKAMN
The assay can be described thus: purified proteins mixed; method not described.

B1: EsaB (other)
chain: MNQHVKVTFDFTNYNYGTYDLAVPAYLPIKNLIALVLDSLDISIFDVNTQIKVMTKGQLLVENDRLIDYQIADGDILKLL
notes: 80 amino acid predicted soluble protein; also called purified EsaB
For the molecule B1, the binding result is reported as “no binding”.

The values are drawn from US20110206676A1 (UNIVERSITY OF CHICAGO, published 2011).
